Test results reported in patent CN101223191A (AGENSYS INC, dated 2008).
Several values for one entry are separate records, joined by “and”; a condition that tells them apart may be missing. Equal entries are not always repeated.

How the values were obtained:
[1] = target: T1, human PSCA (prostate stem cell antigen, PSCA v.1) (human, UniProt O43653 12-83); assay: FACS saturation binding on LAPC9AI cells, one-site binding (hyperbola) fit, Graphpad Prism
T1 construct: The whole entry is named; also called PSCA变体1; 细胞表面PSCA
T1 sequence: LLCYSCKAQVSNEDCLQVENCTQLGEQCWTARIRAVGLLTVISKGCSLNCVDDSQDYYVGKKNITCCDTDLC

[2] = target: T1, human PSCA (prostate stem cell antigen, …); assay: FACS-based affinity on cell-surface PSCA (LAPC9AI cells)

B1: anti-PSCA MAb H1-1.10 (antibody, V domains shown)
VH: QLQESGPGLVKPSQTLSLTCTVSGGSISSGGYYWSWIRQHPGKGLEWIGYIYYSGSTYYNPSLKSRVTISVDTSKNQFSLKLSSGTAADTAVYYCARDHITMVRGVPKGMDVWGQGTTVTVSS
VL: QLTQSPSSLSASVGDRVTITCRASQSISRHLNWYQQKPGKAPKFLIYVASSLQSGVPSRFSGSGSGTDFTLTISSLQPEDFATYFCQQSYSIPRTFGQGTKVEIKR
notes: Fully human IgG1 (gamma 1) / kappa antibody from XenoMouse immunised with B300.19/PSCA cells; tested as hybridoma supernatant or purified antibody; also called PSCA H1-1.10; H1/1.10.1.1
B1 was tested, and the Kd [1] was 0.593 nM and 0.636 nM and the Kd [2] was 0.6 nM.
